In test [1] the target is T54A+A105T HIV-1 CA tubes (HIV-1). Kind of test: co-sedimentation; assembled CA tubes (5 µM) incubated 1 h with HeLa cell extracts (500, 250 or 125 µg) in 100 µl of 50 mM Tris pH 8, 150 mM NaCl, 5 mM MgCl2, 0.5 mM EDTA; pelleted 5 min at 5,000 x g and washed; non-reducing SDS-PAGE and quantitative immunoblotting for CPSF6 and CA; in one experiment with or without 5 µM CsA.

Test [2] concerns the target RKLM+T107I HIV-1 CA tubes (HIV-1). The description is as above.
In test [3] the target is RKLM+S41A HIV-1 CA-NC tubular complexes (HIV-1). The experiment in a line: co-sedimentation; 5 µl of assembled CA-NC complexes mixed with 125 µg of HeLa cell lysate, NaCl adjusted to 150 mM, 1 h at room temperature; pelleted through a 60% sucrose cushion at 100,000 x g for 1 h at 4°C; CPSF6 in the pellet measured by LI-COR and normalized by CA-NC.
The target in test [4] is RKLM+T107I HIV-1 CA-NC tubular complexes (HIV-1). The test is described as above.

On to “endogenous CPSF6 (from UniProt Q16630 1-551) (natural protein)”, for which the quantity of CPSF6 brought down relative to T54A CA tubes (fold of T54A CA tubes) in test [1] is 0.33. Besides, the reduced binding to CPSF6, percent in test [2] and in test [4] was 50% each time. For the same substance, the percent weaker binding than RKLM in test [3] amounted to 7%.
